Measured values from US20050182242A1, “Global analysis of protein activities using proteome chips” (priority 2001, published 2005).

B1: FUR1: yeast GST-HisX6 fusion protein on proteome chip (protein, UniProt P18562 1-216, looked up)
Uracil …: MSSEPFKNVYLLPQTNQLLGLYTIIRNKNTTRPDFIFYSDRIIRLLVEEGLNHLPVQKQIVETDTNENFEGVSFMGKICGVSIVRAGESMEQGLRDCCRSVRIGKILIQRDEETALPKLFYEKLPEDISERYVFLLDPMLATGGSAIMATEVLIKRGVKPERIYFLNLICSKEGIEKYHAAFPEVRIVTGALDRGLDENKYLVPGLGDFGDRYYCV
modifications: GST-His6 fusion tag
notes: yeast GST-HisX6 fusion protein on proteome chip
B2: PEX4: yeast GST-HisX6 fusion protein on proteome chip (protein, UniProt P29340 1-183, looked up)
Ubiquitin-conjugating enzyme …: MPNFWILENRRSYTSDTCMSRIVKEYKVILKTLASDDPIANPYRGIIESLNPIDETDLSKWEAIISGPSDTPYENHQFRILIEVPSSYPMNPPKISFMQNNILHCNVKSATGEICLNILKPEEWTPVWDLLHCVHAVWRLLREPVCDSPLDVDIGNIIRCGDMSAYQGIVKYFLAERERINNH
modifications: GST-His6 tag
notes: as for B1
B3: FRM2: yeast GST-HisX6 fusion protein on proteome chip (protein, UniProt P37261 1-193, looked up)
nitroreductase FRM2: MSPTGNYLNAITNRRTIYNLKPELPQGVGLDDVKRTVHVILKNTPTAFNSQVNRAVIIVGDTHKRIWDAVASAMPTAEAKKRPESCRDEAYGSVIFFTDEGPTEKLQRDFPALAAAFPTCAAHTTGAVQIQSWTALELLGLGANLQHYNDYVKSALPQDVPIAWTVQSQLVFGVPTALPEEKTFINNVINVYH
modifications: GST-His6 fusion tag
notes: as for B1
B4: TAT2: yeast GST-HisX6 fusion protein on proteome chip (protein, UniProt P38967 1-592, looked up)
Tryptophan permease: MTEDFISSVKRSNEELKERKSNFGFVEYKSKQLTSSSSHNSNSSHHDDDNQHGKRNIFQRCVDSFKSPLDGSFDTSNLKRTLKPRHLIMIAIGGSIGTGLFVGSGKAIAEGGPLGVVIGWAIAGSQIIGTIHGLGEITVRFPVVGAFANYGTRFLDPSISFVVSTIYVLQWFFVLPLEIIAAAMTVQYWNSSIDPVIWVAIFYAVIVSINLFGVRGFGEAEFAFSTIKAITVCGFIILCVVLICGGGPDHEFIGAKYWHDPGCLANGFPGVLSVLVVASYSLGGIEMTCLASGETDPKGLPSAIKQVFWRILFFFLISLTLVGFLVPYTNQNLLGGSSVDNSPFVIAIKLHHIKALPSIVNAVILISVLSVGNSCIFASSRTLCSMAHQGLIPWWFGYIDRAGRPLVGIMANSLFGLLAFLVKSGSMSEVFNWLMAIAGLATCIVWLSINLSHIRFRLAMKAQGKSLDELEFVSAVGIWGSAYSALINCLILIAQFYCSLWPIGGWTSGKERAKIFFQNYLCALIMLFIFIVHKIYYKCQTGKWWGVKALKDIDLETDRKDIDIEIVKQEIAEKKMYLDSRPWYVRQFHFWC
modifications: GST-His6 tag
notes: as for B1
B5: APS2: yeast GST-HisX6 fusion protein on proteome chip (protein, UniProt Q00381 1-147, looked up)
AP-2 complex subunit sigma: MAVQFILCFNKQGVVRLVRWFDVHSSDPQRSQDAIAQIYRLISSRDHKHQSNFVEFSDSTKLIYRRYAGLYFVMGVDLLDDEPIYLCHIHLFVEVLDAFFGNVCELDIVFNFYKVYMIMDEMFIGGEIQEISKDMLLERLSILDRLD
modifications: GST-HisX6 tag
notes: as for B1
B6: MPS1: yeast GST-HisX6 fusion protein on proteome chip (protein, UniProt P54199 1-764, looked up)
Serine/threonine-protein …: MSTNSFHDYVDLKSRTNTRQFSDDEEFTTPPKLSNFGSALLSHTEKTSASEILSSHNNDKIANRLEEMDRSSSRSHPPPSMGNLTSGHTSTSSHSTLFGRYLRNNHQTSMTTMNTSDIEINVGNSLDKSFERIRNLRQNMKEDITAKYAERRSKRFLISNRTTKLGPAKRAMTLTNIFDEDVPNSPNQPINARETVELPLEDSHQTNFKETKRNTDYDSIDFGDLNPIQYIKKHNLPTSDLPLISQIYFDKQREENRQAALRKHSSRELLYKSRSSSSSLSSNNLLANKDNSITSNNGSQPRRKVSTGSSSSKSSIEIRRALKENIDTSNNSNFNSPIHKIYKGISRNKDSDSEKREVLRNISINANHADNLLQQENKRLKRSLDDAITNENINSKNLEVFYHRPAPKPPVTKKVEIVEPAKSASLSNNRNIITVNDSQYEKIELLGRGGSSRVYKVKGSGNRVYALKRVSFDAFDDSSIDGFKGEIELLEKLKDQKRVIQLLDYEMGDGLLYLIMECGDHDLSQILNQRSGMPLDFNFVRFYTKEMLLCIKVVHDAGIVHSDLKPANFVLVKGILKIIDFGIANAVPEHTVNIYRETQIGTPNYMAPEALVAMNYTQNSENQHEGNKWKVGRPSDMWSCGCIIYQMIYGKPPYGSFQGQNRLLAIMNPDVKIPFPEHTSNNEKIPKSAIELMKACLYRNPDKRWTVDKVLSSTFLQPFMISGSIMEDLIRNAVRYGSEKPHISQDDLNDVVDTVLRKFADYKI
modifications: GST-HisX6 tag
notes: as for B1
B7: ARP10: yeast GST-HisX6 fusion protein on proteome chip (protein, UniProt Q04549 1-284, looked up)
Actin-like protein ARP10: MSNTIVIVYLGANRIEIGRSADACPQEIIAWKTGSINEKNREELKKIFEHYFQICNILGNREVQVLILEDIFISVVEKRIICSILFKEFDCAHVSFVPRAIVHCLSCNTRNAIVIDIGTNYTTCVPIFDLRPLQQFIKYSKRGKRQVESRIPLPGSLYMPIFFDEEYNSKNCEVDETPVINLVKNIVESLPIDLRRPLRENIIIVNIEEAYETVIRNLFKLKMDTSKIQFPKNYWQAGSACAKILLHYKGSNIVGIERDEFYNNPHIAPDWFDYYFRTGVKRLQ
modifications: GST-HisX6 tag
notes: as for B1
B8: VTC4: yeast GST-HisX6 fusion protein on proteome chip (protein, UniProt P47075 1-721, looked up)
Vacuolar transporter …: MKFGEHLSKSLIRQYSYYYISYDDLKTELEDNLSKNNGQWTQELETDFLESLEIELDKVYTFCKVKHSEVFRRVKEVQEQVQHTVRLLDSNNPPTQLDFEILEEELSDIIADVHDLAKFSRLNYTGFQKIIKKHDKKTGFILKPVFQVRLDSKPFFKENYDELVVKISQLYDIARTSGRPIKGDSSAGGKQQNFVRQTTKYWVHPDNITELKLIILKHLPVLVFNTNKEFEREDSAITSIYFDNENLDLYYGRLRKDEGAEAHRLRWYGGMSTDTIFVERKTHREDWTGEKSVKARFALKERHVNDFLKGKYTVDQVFAKMRKEGKKPMNEIENLEALASEIQYVMLKKKLRPVVRSFYNRTAFQLPGDARVRISLDTELTMVREDNFDGVDRTHKNWRRTDIGVDWPFKQLDDKDICRFPYAVLEVKLQTQLGQEPPEWVRELVGSHLVEPVPKFSKFIHGVATLLNDKVDSIPFWLPQMDVDIRKPPLPTNIEITRPGRSDNEDNDFDEDDEDDAALVAAMTNAPGNSLDIEESVGYGATSAPTSNTNHVVESANAAYYQRKIRNAENPISKKYYEIVAFFDHYFNGDQISKIPKGTTFDTQIRAPPGKTICVPVRVEPKVYFATERTYLSWLSISILLGGVSTTLLTYGSPTAMIGSIGFFITSLAVLIRTVMVYAKRVVNIRLKRAVDYEDKIGPGMVSVFLILSILFSFFCNLVAK
modifications: GST-HisX6 tag
notes: as for B1
B9: FBP26: yeast GST-HisX6 fusion protein on proteome chip (protein, UniProt P32604 1-452, looked up)
Fructose-2,6-bisphosphatase: MGYSTISNDNDIKVCVIMVGLPARGKSFISQKIIRYLSWLSIKAKCFNVGNYRRDVSGNVPMDAEFFNFENTDNFKLRELAAQNAIKDIVNFFTKEDGSVAVFDATNSTRKRRKWLKDICEKNNIQPMFLESWSNDHELIINNAKDIGSTSPDYENSEPHVAEADFLERIRQYERFYEPLDPQKDKDMTFIKLVNIIEEVVINKIRTYLESRIVFYVMNIRPKPKYIWLSRHGESIYNVEKKIGGDSSLSERGFQYAKKLEQLVKESAGEINLTVWTSTLKRTQQTANYLPYKKLQWKALDELDAGVCDGMTYEEIEKEYPEDFKARDNDKYEYRYRGGESYRDVVIRLEPVIMELERQENVLIITHQAVLRCIYAYFMNVPQEESPWMSIPLHTLIKLEPRAYGTKVTKIKANIPAVSTYKEKGTSQVGELSQSSTKLHQLLNDSPLEDKF
modifications: GST-His6 tag
notes: as for B1

These molecules were tested on PI(4)P liposomes (assay: Yeast proteome chip probed with PI(4)P liposomes). Conditions: liposome binding signal on yeast proteome chip, Cy3-streptavidin detection.

Molecule | PI(4)P
B1 | 148.94
B2 | 57.48
B3 | 12.63
B4 | 51.39
B5 | 159.82
B6 | 6148.60
B7 | 98.64
B8 | 99.07
B9 | 62.06

What follows are molecules tested on PI(3,4,5)P3 liposomes (assay: Yeast proteome chip probed with PI(3,4,5)P3 liposomes). Conditions: liposome binding signal on yeast proteome chip, Cy3-streptavidin detection.

Molecule | PI(3, 4, 5)P3
B1 | 72.22
B2 | 21.49
B3 | 16.88
B4 | 68.29
B5 | 15.97
B6 | 1864.12
B7 | 30.15
B8 | 25.31
B9 | 25.31

What follows are molecules tested on PI(3)P liposomes (assay: Yeast proteome chip probed with PI(3)P liposomes). Conditions: liposome binding signal on yeast proteome chip, Cy3-streptavidin detection.

Molecule | PI(3)P
B1 | 112.25
B2 | 1.75
B3 | 3.50
B4 | 60.50
B5 | 39.50
B6 | 310.00
B7 | 51.00
B8 | 8.50
B9 | 5.75

These molecules were tested on PI(4,5)P2 liposomes (assay: Yeast proteome chip probed with PI(4,5)P2 liposomes). Conditions: liposome binding signal on yeast proteome chip, Cy3-streptavidin detection.

Molecule | PI(4, 5)P2
B1 | 111.70
B2 | 28.31
B3 | 75.34
B4 | 85.79
B5 | 103.65
B6 | 1084.79
B7 | 32.01
B8 | 26.78
B9 | 47.90

These molecules were tested on PI(3,4)P2 liposomes (assay: Yeast proteome chip probed with PI(3,4)P2 liposomes). Conditions: liposome binding signal on yeast proteome chip, Cy3-streptavidin detection.

Molecule | PI(3, 4)P2
B1 | 210.19
B2 | 8.63
B3 | 59.34
B4 | 62.48
B5 | 56.51
B6 | 4216.40
B7 | 29.20
B8 | 30.45
B9 | 48.51

What follows are molecules tested on phosphatidylcholine (PC) liposomes (assay: Yeast proteome chip probed with PC liposomes). Conditions: liposome binding signal on yeast proteome chip, Cy3-streptavidin detection.
How it was run: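 Yeast proteome chips incubated 1 h at RT with sonicated liposomes of PC containing 1% (w/w) biotin-DHPE, plus 5% (w/w) of the indicated phosphoinositide where applicable. After PBS washes, bound liposomes detected with Cy3- or Cy5-streptavidin (>30 min, RT, dark) and fluorescence scanned.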

Molecule | PC
B1 | 95.67
B2 | 69.85
B3 | 63.39
B4 | 83.93
B5 | 58.70
B6 | 4374.59
B7 | 119.74
B8 | 66.03
B9 | 107.41
